Results on one substance are retold here after paper PMC10975748.

The target in this experiment is voltage-gated potassium channel Kv1.3 (UniProt P22001).
Sequence of voltage-gated potassium channel Kv1.3 (P22001 whole entry): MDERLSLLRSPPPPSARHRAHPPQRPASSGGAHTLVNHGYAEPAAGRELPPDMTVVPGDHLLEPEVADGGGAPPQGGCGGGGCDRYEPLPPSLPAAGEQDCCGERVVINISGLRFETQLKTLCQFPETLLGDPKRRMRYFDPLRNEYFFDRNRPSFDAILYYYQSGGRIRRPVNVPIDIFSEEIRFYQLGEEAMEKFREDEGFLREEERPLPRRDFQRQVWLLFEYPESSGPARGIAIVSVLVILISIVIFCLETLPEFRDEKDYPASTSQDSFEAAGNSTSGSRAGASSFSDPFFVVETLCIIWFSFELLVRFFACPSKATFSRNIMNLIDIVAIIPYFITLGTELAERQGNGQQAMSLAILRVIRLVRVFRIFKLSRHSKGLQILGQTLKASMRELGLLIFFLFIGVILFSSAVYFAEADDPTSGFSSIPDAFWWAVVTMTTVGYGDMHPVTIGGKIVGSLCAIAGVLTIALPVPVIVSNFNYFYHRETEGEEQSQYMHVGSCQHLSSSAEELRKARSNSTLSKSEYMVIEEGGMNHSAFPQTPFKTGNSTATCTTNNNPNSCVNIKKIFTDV

Consider mCherry-Vm24, for which the Kd from electrophysiological assays amounted to 275 pM.
